In the supplement of paper PMC11780869:

System: Bacillus subtilis
Test: cleaved RNA product abundance (RNA/gDNA barcode ratio) relative to median wild-type variant (ratio to wild type); higher = more accumulation of the downstream cleavage product
Method in brief: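 Cleaved product abundance was measured with barcoded reporter mRNAs (truncated aprE or tetM) carrying mutagenized RNase Y cleavage-site windows in the B. subtilis chromosome. Cultures in LB at 37°C grew from OD600 0.0003 to 0.3. Gel-selected cleaved RNA was reverse transcribed and barcode-sequenced with genomic DNA barcodes, and the RNA:gDNA barcode ratio per construct was scaled to the median construct bearing the unmutated site.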

[1] = experiment (reporter, strain, medium): exp 2b: truncated aprE reporter, strain BJT200, cleavage site: cggR-gapA (positions -7 to +36 mutated)
[2] = experiment (reporter, strain, medium): exp 4a: truncated aprE reporter, strain BJT201 with 2% xylose (RNase J1 expressed), cleavage site: cggR-gapA (positions -7 to +36 mutated)
[3] = experiment (reporter, strain, medium): exp 8a: truncated aprE reporter, strain BJT201 with 2% xylose (RNase J1 expressed), cleavage site: glnRA (positions -5 to +31 mutated)
[4] = experiment (reporter, strain, medium): exp 6: tetM reporter, strain 168, cleavage site: cggR-gapA (positions -7 to +36 mutated)

Sequence | cleaved RNA product abundance [1] | cleaved RNA product abundance [2] | cleaved RNA product abundance [3] | also measured
ACAGACGAAGGAGCCGCAAAGAATTTATTAAGGGATGAATAATCACTCAATATAAATATCTCTCACTTATTTAAA | 0.134 | 0.119 |  | 
ACAGACGAAGGAGCCGCAAAGAAGTTATTAAGGGATGAATAATACCTCAATTTAAATATCTCTCACTTATTTAAA | 0.0845 | 0.0904 |  | 
ACAGACGAAGGAGCCGCAAAGAAGCTATTAAGTGATGAATAATCCCTCAATATAAATATCTCTCACTTATTTAAA |  | 0.113 |  | 
ACAGACGAAGGAGCCGCAAAGAAGTTATTAAGGGATGTATAATCTCTCAATATAAATATCTCTCACTTATTTAAA | 0.708 | 0.513 |  | 
ACAGACGAAGGAGCCGCGAAGTAGTTATTAAGGGATGAATAATCCCTCAATATAAATATCTCTCACTTATTTAAA |  | 1.29 |  | 
CGACATGTCCCGCTTCTTTCATTATTCCGTTAGCAACTGTTTTGCTATATACATCTACCTTTTAAGAGGAGGAAT |  |  | 1.15 | 
ACAGACGAAGGAGCCGCAAAGAAGTTATTAAGGGAAGAATAATCCCTAAATATAAATATCTCTCACTTATTTAAA |  | 0.326 |  | 
CGACATGTCCCGCTTCTTTCATTAATCCGTTAGCAACTGTTTTGCTATACACATTTACTTTTTAAGAGGAGGAAT |  |  | 0.146 | 
ACAGACGAAGGAGCCGCAAAGAAGTTATTAAGGGACGAATAATCCCTCATTATAAATATCTCTCACTTATTTAAA | 0.215 | 0.326 |  | 
ACAGACGAAGGAGCCGCAAAGAAGTTATTAAGGCATGAATAATCCCTCAATTTAAATATCTCTCACTTATTTAAA | 0.059 | 0.0584 |  | 
CGACATGTCCCGCTTCTTTCATTAATCCGTTAGCAAATGTTTTGCTTTATACATTTACCTTTTAAGAGGAGGAAT |  |  | 0.298 | 
CGACATGTCCCGCTTCTTTCATTACTCCATTAGCAACTGTTTTGCTATATACATTTACCATTTAAGAGGAGGAAT |  |  | 1.11 | 
ACAGACGAAGGAGCCGCAATGAAGTTATTAAGCGATGAATAATCCCTCAATATAAATATCTCTCACTTATTTAAA | 0.0928 | 0.108 |  | 
ACAGACGAAGGAGCCGCAAAGAAGTTATTAAGGGATGAATAATCCTTCAGTATAAATATCTCTCACTTATTTAAA |  | 0.166 |  | 
CGACATGTCCCGCTTCTTTCATTACTCCGTTAGTAACTGTTTTGCTATATACATTTACCTTTTAAGAGGAGGAAT |  |  | 0.482 | 
ACAGACGAAGGAGCCGCAAAGAATTTATTAAGGGATGAATAATCCCTCAATATAAATAGCTCTCACTTATTTAAA |  | 0.327 |  | 
CGACATGTCCCGCTTCTTTCATTAATCCGTTATCAAATGTTATGTTATATACATTTACCTTTTAAGAGGAGGAAT |  |  | 0.413 | 
CGACATGTCCCGCTTCTTTCATTAATCCGTTAGCAACTGTTTTGCTATATACACTTACCTTTTAAGAGGAGGAAT |  |  | 0.964 | 
ACAGACGAAGGAGCCGCAAAGAAGTTATTAAAGGATGAATAATCCCCCAATATAAATATCTCTCACTTATTTAAA | 0.152 | 0.156 |  | 
CGACATGTCCCGCTTCTTTCATTAATCCGTTAGCAACTTTTTTGCTATATACATTTACCATTTAAGAGGAGGAAT |  |  | 1.97 | 

Sequence | cleaved RNA product abundance [1] | cleaved RNA product abundance [2] | cleaved RNA product abundance [3] | also measured
CGACATGTCCCGCTTCTTTCATTAATCCGTTAGTAACTGTTTTGCTATATACATTTACCTTTTAAGAGGAGGAAT |  |  | 0.379 | 
ACAGACGAAGGAGCCGCAAAGAAGTTATCAAGGGATTAATAATCCCTCATTATAAATATCTCTCACTTATTTAAA |  | 0.314 |  | 
ACAGACGAAGGAGCCGCAAAGAAGTTGTTAAGGGATGAATAATCACTCAATATAAATATCTCTCACTTATTTAAA |  | 0.0768 |  | 
CGACATGTCCCGCTTCTTTCATTAATCCGTTAGCAACTGTTTTCCTATAAACATTTACCTTTTAAGAGGAGGAAT |  |  | 0.526 | 
ACAGACGAAGGAGCCGCAAACAAGTTATTAAGGGATGAACAATCCCTCAATATAAATATCTCTCACTTATTTAAA |  | 0.451 |  | 
ACAGACGAAGGAGCCGCAAAGAAGTTATTAAGGCATGAATAATACCTCAATATAAATATCTCTCACTTATTTAAA | 0.0988 | 0.153 |  | 
ACAGACGAAGGAGCCGCAAACAAGTTATTAAGGGATGAATAATCCCTGAATATAAATATCTCTCACTTATTTAAA |  | 0.455 |  | 
ACAGACGAAGGAGCCGCAAAGAAGTTATTAAGGGATTAATAATCCCTCATTATAAATATCTCTCACTTATTTAAA | 0.247 | 0.534 |  | 
CGACATGTCCCGCTTCTTTCATTAATCCGTTTGCACCTGTTTTGCTATATACATTTACCTTTTAAGAGGAGGAAT |  |  | 0.295 | 
CGACATGTCCCGCTTCTTTCATTAATCTGTTAGCAACTGTTTTGCTATATACATTTATCTTTTAAGAGGAGGAAT |  |  | 0.969 | 
CGACATGTCCCGCTTCTTTCATTAATCCGTTAGCAACTGATTTGCTTTATACATTTACCTTTTAAGAGGAGGAAT |  |  | 0.282 | 
CGACATGTCCCGCTTCTTTCATTACTCAGTTAGCAACTGTTTTGCTATATACATTTACCTTTTAAGAGGAGGAAT |  |  | 1.1 | 
ACAGACGAAGGAGCCGCAAAGAAGTGATTAAGTGATGAATAATCCCTCAATATAAATATCTCTCACTTATTTAAA | 0.114 | 0.0876 |  | 
ACAGACGAAGGAGCCGCGAAGAAGTTATTTAGGGATGAATAATCCCTCAATATAAATATCTCTCACTTATTTAAA | 0.572 |  |  | 
ACAGACGAAGGAGCCGCAAAGAAGTTATAAAGGGATGAATAACCCCTCAATATAAATATCTCTCACTTATTTAAA |  | 0.261 |  | 
ACAGACGAAGGAGCCGCAAAGAAGTAATTAAGGGATGAATAATCTCTCAATATAAATATCTCTCACTTATTTAAA | 0.213 | 0.244 |  | 
CGACATGTCCCGCTTCTTTCATTAATCCCTTAGCAACTGTTTTGCTATATACATTTACTTTTTAAGAGGAGGAAT |  |  | 0.19 | 
ACAGACGAAGGAGCCGCAAAGAAGATATTAAGGGATAAATAATCCCTCAATATAAATATCTCTCACTTATTTAAA |  | 0.78 |  | cleaved RNA product abundance [4]: 0.468
ACAGACGAAGGAGCCGCAAAGAGGTTAATAAGGGATGAATAATCCCTCAATATAAATATCTCTCACTTATTTAAA |  | 0.363 |  | 
ACAGACGAAGGAGCCGCAAAGCAGTTATTAAGGGATGAGTAATCCCTCAATATAAATATCTCTCACTTATTTAAA |  | 0.658 |  | 

Sequence | cleaved RNA product abundance [1] | cleaved RNA product abundance [2] | cleaved RNA product abundance [3] | also measured
CGACATGTCCCGCTTCTTTCATTAATCCGTTAACAACTGTTTTGCTATATACATTTAACTTTTAAGAGGAGGAAT |  |  | 0.24 | 
ACAGACGAAGGAGCCGCAAAGAAGTTATTAAGGGATGAATAATCCCTAAATATAAATAACTCTCACTTATTTAAA |  | 0.442 |  | 
ACAGACGAAGGAGCCGCAAAGAAGTTATTAATGGATGAATAATCCCTCGATATAAATATCTCTCACTTATTTAAA | 0.0785 | 0.116 |  | 
ACAGACGAAGGAGCCGCAAAGAAGTGATTAAGGGATGAATAATCGCTCAATATAAATATCTCTCACTTATTTAAA |  | 0.0548 |  | 
CGACATGTCCCGCTTCTTTCATTAATTCGTTAGCAACTGTTTTACTATATACATTTACCTTTTAAGAGGAGGAAT |  |  | 0.749 | 
ACAGACGAAGGAGCCGCAAAGAAGTTATTAAGGGATGAATAATCCCTCAATATATATTTCTCTCACTTATTTAAA |  | 0.561 |  | 
CGACATGTCCCGCTTCTTTCATTAATCCGTTAGCAACTGTTTTCCTATATACATATACCTTTTAAGAGGAGGAAT |  |  | 0.353 | 
ACAGACGAAGGAGCCGCAACGAAGTTATTAAGGGATGAATAATCCCTCAATGTAAATATCTCTCACTTATTTAAA |  | 0.11 |  | 
CGACATGTCCCGCTTCTTTCATTAATCCGTTAGCAAATGTTTTACTATATACATTTACCTTTTAAGAGGAGGAAT |  |  | 0.73 | 
ACAGACGAAGGAGCCGCAAAGAAGTTATTAAGGGACGAATAATCCCTCAATATAAATATCTCTCACTTATTTAAA | 0.691 | 0.697 |  | cleaved RNA product abundance [4]: 0.805
ACAGACGAAGGAGCCGCAAATTAGTTATTAAGGGATGAATAATCCCTCTATATAAATATCTCTCACTTATTTAAA |  | 0.215 |  | 
ACAGACGAAGGAGCCGCAAAGAAGTTACTAAGGGATGGATAATCCCTCAATATAAATATCTCTCACTTATTTAAA |  | 0.208 |  | 
ACAGACGAAGGAGCCGCAAAGAAGTTATTAAAGGATGAATAATCCTTCAATATAAATATCTCTCACTTATTTAAA | 0.646 | 0.86 |  | 
ACAGACGAAGGAGCCGCAAAAAAGTTATTAAGGGATGAATAATCCCTCAATATGAATATCTCTCACTTATTTAAA | 0.135 |  |  | 
ACAGACGAAGGAGCCGCAAAGAAGTTATTAAGGGATGAATAATCCCTCAATATAAACATTTCTCACTTATTTAAA | 0.752 |  |  | 
ACAGACGAAGGAGCCGCAAAGAAGTTATTAAGTGATGAATAATCCCTCCATATAAATATCTCTCACTTATTTAAA |  | 0.104 |  | 
ACAGACGAAGGAGCCGCAAAGAAGTTATTAAGGGCTGAATAATCCCACAATATAAATATCTCTCACTTATTTAAA |  | 0.0873 |  | 
ACAGACGAAGGAGCCGCAAAGAAGTTCTTAAGGGATAAATAATCCCTCAATATAAATATCTCTCACTTATTTAAA | 0.104 | 0.212 |  | 
ACAGACGAAGGAGCCGCAAAGAAGTTATTAACGGATGAATAATCCCTCAATATAAAAATCTCTCACTTATTTAAA | 0.156 | 0.116 |  | 
ACAGACGAAGGAGCCGCACAGAAGTTATTAAGGGATGAATAAACCCTCAATATAAATATCTCTCACTTATTTAAA | 0.294 | 0.34 |  | 
